Reference: IntAct's records for PubMed 15234987

These substances were tested against fog1_mouse Zfpm1 (UniProt O35615).
Sequence of fog1_mouse Zfpm1 (O35615 whole entry): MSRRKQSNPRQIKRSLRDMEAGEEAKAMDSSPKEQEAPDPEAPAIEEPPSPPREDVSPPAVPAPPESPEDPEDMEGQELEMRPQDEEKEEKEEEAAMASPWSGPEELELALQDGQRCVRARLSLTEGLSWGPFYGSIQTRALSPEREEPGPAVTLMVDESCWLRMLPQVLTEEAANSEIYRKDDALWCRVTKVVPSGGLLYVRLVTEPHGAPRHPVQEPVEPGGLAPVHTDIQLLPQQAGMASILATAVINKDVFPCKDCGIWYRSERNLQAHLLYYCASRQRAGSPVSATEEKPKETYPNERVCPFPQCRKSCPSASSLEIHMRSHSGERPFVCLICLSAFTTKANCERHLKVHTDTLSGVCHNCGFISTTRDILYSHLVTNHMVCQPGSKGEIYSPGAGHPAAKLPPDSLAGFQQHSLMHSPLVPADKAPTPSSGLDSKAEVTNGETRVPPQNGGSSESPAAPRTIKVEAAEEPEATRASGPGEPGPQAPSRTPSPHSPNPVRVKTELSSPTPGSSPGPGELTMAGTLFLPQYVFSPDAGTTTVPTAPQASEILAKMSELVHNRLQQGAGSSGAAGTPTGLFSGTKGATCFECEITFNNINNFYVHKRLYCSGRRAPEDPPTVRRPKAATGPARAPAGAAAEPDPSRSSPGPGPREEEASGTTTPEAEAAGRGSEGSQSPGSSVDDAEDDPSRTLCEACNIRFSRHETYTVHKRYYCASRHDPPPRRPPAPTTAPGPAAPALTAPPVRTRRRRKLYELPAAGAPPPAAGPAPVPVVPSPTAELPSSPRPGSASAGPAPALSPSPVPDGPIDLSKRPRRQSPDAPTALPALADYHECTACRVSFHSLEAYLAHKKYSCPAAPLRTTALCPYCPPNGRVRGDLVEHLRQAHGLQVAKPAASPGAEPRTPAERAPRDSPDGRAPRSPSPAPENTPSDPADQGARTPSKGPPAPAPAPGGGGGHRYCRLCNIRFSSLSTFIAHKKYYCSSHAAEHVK

Sequence of Transforming acidic coiled-coil-containing protein 3 (Mus musculus), Q9JJ11 E629A;K630A (Q9JJ11 whole entry E629A/K630A): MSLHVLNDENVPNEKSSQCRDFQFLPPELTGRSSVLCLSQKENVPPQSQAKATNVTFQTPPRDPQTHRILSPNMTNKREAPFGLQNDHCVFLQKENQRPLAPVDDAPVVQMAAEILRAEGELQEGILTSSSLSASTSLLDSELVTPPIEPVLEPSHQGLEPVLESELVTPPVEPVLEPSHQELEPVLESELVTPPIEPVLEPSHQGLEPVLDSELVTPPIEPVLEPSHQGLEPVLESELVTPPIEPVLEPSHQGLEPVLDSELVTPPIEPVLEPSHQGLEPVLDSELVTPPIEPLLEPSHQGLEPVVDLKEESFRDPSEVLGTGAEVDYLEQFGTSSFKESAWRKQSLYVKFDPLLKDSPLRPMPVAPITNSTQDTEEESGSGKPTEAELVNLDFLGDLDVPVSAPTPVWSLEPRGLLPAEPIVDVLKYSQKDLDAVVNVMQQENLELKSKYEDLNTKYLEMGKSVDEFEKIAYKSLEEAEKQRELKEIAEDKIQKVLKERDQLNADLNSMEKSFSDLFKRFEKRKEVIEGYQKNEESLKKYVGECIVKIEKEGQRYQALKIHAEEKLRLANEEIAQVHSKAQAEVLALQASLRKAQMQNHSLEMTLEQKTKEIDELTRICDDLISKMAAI
Sequence of Transforming acidic coiled-coil-containing protein 3 (Mus musculus), Q9JJ11 R619A;I620A (Q9JJ11 whole entry R619A/I620A): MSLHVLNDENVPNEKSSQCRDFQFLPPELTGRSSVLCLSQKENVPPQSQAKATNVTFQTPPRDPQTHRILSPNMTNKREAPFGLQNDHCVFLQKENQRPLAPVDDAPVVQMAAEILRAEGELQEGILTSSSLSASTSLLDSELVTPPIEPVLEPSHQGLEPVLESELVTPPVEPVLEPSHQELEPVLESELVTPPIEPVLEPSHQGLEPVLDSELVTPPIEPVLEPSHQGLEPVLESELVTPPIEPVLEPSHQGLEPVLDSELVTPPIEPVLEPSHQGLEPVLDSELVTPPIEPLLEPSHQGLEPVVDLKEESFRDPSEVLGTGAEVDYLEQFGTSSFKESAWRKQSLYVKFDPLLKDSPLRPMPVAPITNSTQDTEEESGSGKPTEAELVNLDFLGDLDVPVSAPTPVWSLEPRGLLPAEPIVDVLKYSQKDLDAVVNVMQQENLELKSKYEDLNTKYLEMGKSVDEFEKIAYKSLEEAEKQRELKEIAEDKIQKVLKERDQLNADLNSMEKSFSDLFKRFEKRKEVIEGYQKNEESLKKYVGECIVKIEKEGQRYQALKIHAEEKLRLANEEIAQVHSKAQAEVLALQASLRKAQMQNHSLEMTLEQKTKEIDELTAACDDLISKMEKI
Sequence of Transforming acidic coiled-coil-containing protein 3 (Mus musculus), Q9JJ11 D622A;D623A (Q9JJ11 whole entry D622A/D623A): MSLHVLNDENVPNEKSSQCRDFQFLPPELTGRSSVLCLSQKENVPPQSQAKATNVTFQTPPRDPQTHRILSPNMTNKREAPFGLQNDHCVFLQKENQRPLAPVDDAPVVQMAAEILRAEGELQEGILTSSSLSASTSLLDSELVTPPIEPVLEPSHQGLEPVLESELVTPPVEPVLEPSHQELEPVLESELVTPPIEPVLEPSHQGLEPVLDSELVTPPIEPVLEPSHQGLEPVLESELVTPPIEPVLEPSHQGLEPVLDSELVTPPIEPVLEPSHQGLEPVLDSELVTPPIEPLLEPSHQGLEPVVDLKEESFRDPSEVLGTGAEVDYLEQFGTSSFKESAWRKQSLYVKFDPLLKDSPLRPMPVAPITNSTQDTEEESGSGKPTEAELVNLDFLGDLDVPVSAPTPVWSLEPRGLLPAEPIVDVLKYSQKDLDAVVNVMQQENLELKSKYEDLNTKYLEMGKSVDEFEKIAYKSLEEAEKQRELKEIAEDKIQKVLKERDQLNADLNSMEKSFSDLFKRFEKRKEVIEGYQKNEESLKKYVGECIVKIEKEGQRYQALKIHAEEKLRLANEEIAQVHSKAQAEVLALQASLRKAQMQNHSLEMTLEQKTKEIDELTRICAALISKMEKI
Sequence of Transforming acidic coiled-coil-containing protein 3 (Mus musculus), Q9JJ11 I625A;S626A (Q9JJ11 whole entry I625A/S626A): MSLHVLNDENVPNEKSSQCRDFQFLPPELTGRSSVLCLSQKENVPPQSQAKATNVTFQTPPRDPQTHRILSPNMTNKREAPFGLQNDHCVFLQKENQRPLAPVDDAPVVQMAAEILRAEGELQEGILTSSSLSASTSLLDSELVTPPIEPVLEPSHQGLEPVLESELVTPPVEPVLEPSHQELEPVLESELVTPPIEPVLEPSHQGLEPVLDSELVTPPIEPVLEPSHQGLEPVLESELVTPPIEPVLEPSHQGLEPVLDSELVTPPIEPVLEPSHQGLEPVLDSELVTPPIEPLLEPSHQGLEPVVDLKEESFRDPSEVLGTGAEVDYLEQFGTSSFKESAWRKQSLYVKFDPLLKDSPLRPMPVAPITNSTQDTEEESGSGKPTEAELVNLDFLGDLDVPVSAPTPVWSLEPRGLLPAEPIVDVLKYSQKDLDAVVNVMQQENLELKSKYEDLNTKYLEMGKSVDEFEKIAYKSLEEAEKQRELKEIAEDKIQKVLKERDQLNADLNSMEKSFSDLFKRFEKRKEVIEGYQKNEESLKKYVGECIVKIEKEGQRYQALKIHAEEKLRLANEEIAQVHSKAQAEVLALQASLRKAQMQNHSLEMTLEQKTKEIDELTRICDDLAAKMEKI
Sequence of Transforming acidic coiled-coil-containing protein 3 (Mus musculus), Q9JJ11 D615A;E616A (Q9JJ11 whole entry D615A/E616A): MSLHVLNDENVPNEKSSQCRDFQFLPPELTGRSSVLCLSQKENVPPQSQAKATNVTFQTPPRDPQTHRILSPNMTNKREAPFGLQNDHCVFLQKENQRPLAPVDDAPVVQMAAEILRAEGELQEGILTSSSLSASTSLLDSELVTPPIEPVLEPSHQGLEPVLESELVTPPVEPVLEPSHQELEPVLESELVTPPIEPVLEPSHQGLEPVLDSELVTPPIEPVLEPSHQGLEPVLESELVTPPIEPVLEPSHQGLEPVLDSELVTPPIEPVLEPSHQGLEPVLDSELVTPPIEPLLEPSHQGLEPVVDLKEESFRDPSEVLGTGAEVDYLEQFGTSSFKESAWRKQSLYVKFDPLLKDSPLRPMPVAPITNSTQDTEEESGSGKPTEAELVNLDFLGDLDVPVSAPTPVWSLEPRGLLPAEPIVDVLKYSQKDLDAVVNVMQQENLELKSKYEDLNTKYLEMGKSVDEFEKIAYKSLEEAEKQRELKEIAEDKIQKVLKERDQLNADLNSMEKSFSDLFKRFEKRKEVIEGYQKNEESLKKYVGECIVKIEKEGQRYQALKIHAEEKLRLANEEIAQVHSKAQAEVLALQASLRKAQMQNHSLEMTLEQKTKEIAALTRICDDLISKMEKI

| effect of a mutation on the interaction | Substance |
| --- | --- |
| decreasing interaction | Transforming acidic coiled-coil-containing protein 3 (Mus musculus), Q9JJ11 E629A;K630A |
| decreasing interaction | Transforming acidic coiled-coil-containing protein 3 (Mus musculus), Q9JJ11 I625A;S626A |
| decreasing interaction | Transforming acidic coiled-coil-containing protein 3 (Mus musculus), Q9JJ11 R619A;I620A |

Further lines, the substance ahead of its results:

| Substance | effect of a mutation on the interaction |
| --- | --- |
| Transforming acidic coiled-coil-containing protein 3 (Mus musculus), Q9JJ11 D615A;E616A | decreasing interaction |
| Transforming acidic coiled-coil-containing protein 3 (Mus musculus), Q9JJ11 D622A;D623A | decreasing interaction |
